Data: patent US20120121591A1 (priority 2009, published 2012)
Like-named read-outs stand apart in the source and are kept apart here. No end group written: not given here.

What was measured:
human Kv1.1 [1] = biological target: T1, human Kv1.1 (Homo sapiens, UniProt Q09470); test: cell-based or functional assay
human Kv1.3 [2] = biological target: T2, human Kv1.3 (Homo sapiens, UniProt P22001); test: cell-based or functional assay
human Kv1.1 [3] = biological target: T1, human Kv1.1; test: cell-based or functional assay; remark: listed apart in the source
human Kv1.3 [4] = biological target: T2, human Kv1.3; test: cell-based or functional assay; remark: listed apart in the source
human Kv1.1 [5] = biological target: T1, human Kv1.1; format: cell-based; settings: read-out: Kv1.1 IC50, whole cell patch clamp
[6] = system: IL-2 secretion from T cells in human whole blood; format: cell-based
[7] = system: IFN-g secretion from T cells in human whole blood; format: cell-based
human Kv1.3 [8] = biological target: T2, human Kv1.3; format: cell-based; settings: for IC50: read-out: Kv1.3 IC50, whole cell patch clamp
[9] = format: in vivo, rat; settings: Sprague-Dawley rats
Excerpt: Single subcutaneous doses were delivered to animals and serum was collected at various time points after injection. Studies in rats, dogs (beagles), and cynomolgus monkeys involved two to three animals per dose group, with blood and serum collection occurring at various time points over the course of the study. Male Sprague-Dawley (SD) rats (about 0.3 kg), male beagles (about 10 kg) and male cynomolgus monkeys (about 4 kg) were used in the studies described herein (n=3 animals per dose group). Approximately 5 male CD-1 mice were used per dose and time point in our mouse pharmacokinetic studies. Serum samples were stored frozen at −80° C., until analysis in an enzyme-linked immunosorbent assay (ELISA).
Single subcutaneous doses were delivered to animals and serum was collected at various time points after injection. Three animals were used per dose group, with blood and serum collection occurring at various time points over the course of the study. Serum samples were stored frozen at −80° C., until analysis in an enzyme-linked immunosorbent assay (ELISA). […] A brief description of these ELISA protocols is provided: […]

hKv1.3 = hKv1.3 (Homo sapiens, UniProt P22001); test: cell-based; format: cell-based; settings: read-out: Kv1.3 (IWQ) IC50 (nM, Avg)
[10] = system: human CD34-derived mast cells
[11] = biological target: Glycine (Strychnine insensitive) (Cerep target) (human); test: Cerep safety pharmacology binding assay
[12] = biological target: NMDA (Cerep target) (human); test: Cerep safety pharmacology binding assay
[13] = biological target: Glycine (Strychnine insensitive) (Cerep target) (human)
[14] = biological target: NMDA (Cerep target) (human)
hERG (IKr) (human) = hERG (IKr) (human) (UniProt Q12809); test: cell-based or functional assay
hKv1.5 = hKv1.5 (Homo sapiens, UniProt P22460); test: cell-based or functional assay
hNav1.5 (INa) (human) = hNav1.5 (INa) (human) (UniProt Q14524); test: cell-based or functional assay
BKCa (human) = BKCa (human) (UniProt Q12791); test: cell-based or functional assay
hKv1.2 = hKv1.2 (Homo sapiens, UniProt P16389); test: cell-based or functional assay
hKv1.6 = hKv1.6 (Homo sapiens, UniProt P17658); test: cell-based or functional assay
hKv1.7 = hKv1.7 (Homo sapiens, UniProt Q96RP8); test: cell-based or functional assay
[15] = biological target: cynomolgus monkey T cell Kv1.3 (cynomolgus monkey); test: cell-based or functional assay
hCav1.2 (ICa) (human) = hCav1.2 (ICa) (human) (UniProt Q13936); test: cell-based or functional assay
hKv4.3 (Ito) (human) = hKv4.3 (Ito) (human) (UniProt Q9UK17); test: cell-based or functional assay
hKv1.4 = hKv1.4 (Homo sapiens, UniProt P22459); test: cell-based or functional assay

T1 sequence (Q09470 whole entry): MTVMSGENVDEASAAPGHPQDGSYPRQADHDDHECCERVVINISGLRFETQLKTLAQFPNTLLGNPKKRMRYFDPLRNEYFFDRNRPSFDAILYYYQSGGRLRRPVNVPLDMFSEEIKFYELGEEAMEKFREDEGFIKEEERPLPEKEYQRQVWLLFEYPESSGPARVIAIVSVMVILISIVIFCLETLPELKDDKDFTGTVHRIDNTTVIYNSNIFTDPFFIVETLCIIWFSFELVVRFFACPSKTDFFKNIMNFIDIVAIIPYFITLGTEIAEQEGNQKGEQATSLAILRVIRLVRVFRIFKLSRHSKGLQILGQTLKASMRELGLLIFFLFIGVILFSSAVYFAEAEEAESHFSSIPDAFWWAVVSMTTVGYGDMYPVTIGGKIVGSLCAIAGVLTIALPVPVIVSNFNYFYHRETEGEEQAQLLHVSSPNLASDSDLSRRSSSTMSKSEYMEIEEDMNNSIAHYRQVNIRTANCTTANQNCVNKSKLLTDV
T2 sequence (P22001 whole entry): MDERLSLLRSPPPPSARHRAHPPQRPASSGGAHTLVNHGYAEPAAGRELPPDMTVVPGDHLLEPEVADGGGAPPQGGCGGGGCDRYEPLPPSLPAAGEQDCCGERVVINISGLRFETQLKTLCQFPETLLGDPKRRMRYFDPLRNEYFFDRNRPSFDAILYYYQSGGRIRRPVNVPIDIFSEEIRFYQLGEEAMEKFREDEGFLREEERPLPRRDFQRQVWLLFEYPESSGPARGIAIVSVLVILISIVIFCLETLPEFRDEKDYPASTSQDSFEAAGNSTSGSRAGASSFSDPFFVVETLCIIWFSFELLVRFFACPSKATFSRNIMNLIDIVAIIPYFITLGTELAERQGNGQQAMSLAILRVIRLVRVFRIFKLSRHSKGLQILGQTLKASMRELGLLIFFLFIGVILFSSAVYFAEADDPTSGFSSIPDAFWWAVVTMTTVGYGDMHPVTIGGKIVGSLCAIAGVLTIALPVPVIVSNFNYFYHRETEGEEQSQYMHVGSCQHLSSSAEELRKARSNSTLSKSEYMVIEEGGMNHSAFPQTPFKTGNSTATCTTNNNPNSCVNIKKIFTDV
Sequence of hERG (IKr) (human) (Q12809 whole entry): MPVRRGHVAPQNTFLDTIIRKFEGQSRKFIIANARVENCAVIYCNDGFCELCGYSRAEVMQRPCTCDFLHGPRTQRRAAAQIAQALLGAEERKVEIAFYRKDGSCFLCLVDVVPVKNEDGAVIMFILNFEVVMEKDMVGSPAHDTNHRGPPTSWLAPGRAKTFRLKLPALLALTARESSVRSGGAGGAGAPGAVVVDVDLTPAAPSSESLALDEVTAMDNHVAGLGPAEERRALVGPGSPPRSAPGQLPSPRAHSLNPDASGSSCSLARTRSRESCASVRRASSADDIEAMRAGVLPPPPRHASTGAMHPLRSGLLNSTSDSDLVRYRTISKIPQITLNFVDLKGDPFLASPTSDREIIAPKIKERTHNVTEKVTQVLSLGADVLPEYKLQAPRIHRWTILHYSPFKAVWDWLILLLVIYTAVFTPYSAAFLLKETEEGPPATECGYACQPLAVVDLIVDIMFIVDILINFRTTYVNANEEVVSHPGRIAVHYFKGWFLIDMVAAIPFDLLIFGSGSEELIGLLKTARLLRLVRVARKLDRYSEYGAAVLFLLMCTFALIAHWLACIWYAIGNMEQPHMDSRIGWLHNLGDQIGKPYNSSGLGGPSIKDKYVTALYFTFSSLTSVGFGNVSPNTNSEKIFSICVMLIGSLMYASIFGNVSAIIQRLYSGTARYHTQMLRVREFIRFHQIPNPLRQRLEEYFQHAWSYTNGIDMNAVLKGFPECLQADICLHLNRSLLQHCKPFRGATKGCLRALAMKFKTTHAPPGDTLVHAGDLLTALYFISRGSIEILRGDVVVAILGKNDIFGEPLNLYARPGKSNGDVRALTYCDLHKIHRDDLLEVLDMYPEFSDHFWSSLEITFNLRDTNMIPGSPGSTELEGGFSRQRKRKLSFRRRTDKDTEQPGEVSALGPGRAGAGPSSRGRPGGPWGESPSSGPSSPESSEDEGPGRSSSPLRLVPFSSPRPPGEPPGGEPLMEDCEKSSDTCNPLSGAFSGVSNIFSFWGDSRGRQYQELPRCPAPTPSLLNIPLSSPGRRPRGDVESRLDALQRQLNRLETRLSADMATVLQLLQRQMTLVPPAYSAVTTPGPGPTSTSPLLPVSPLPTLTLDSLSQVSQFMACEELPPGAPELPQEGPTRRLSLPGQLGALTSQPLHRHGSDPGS
Sequence of hKv1.2 (P16389 whole entry): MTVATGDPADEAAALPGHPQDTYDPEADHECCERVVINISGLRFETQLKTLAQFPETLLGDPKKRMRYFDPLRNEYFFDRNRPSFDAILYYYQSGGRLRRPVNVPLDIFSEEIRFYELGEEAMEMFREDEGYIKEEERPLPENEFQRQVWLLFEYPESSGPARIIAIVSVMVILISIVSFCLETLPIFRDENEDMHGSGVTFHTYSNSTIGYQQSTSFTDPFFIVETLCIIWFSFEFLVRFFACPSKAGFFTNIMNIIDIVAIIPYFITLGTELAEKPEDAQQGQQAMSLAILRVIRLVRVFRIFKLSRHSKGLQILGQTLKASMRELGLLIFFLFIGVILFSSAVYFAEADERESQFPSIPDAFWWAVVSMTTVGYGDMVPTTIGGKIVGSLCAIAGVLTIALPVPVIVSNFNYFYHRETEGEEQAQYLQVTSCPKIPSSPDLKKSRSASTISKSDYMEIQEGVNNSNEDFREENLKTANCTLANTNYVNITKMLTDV
Sequence of hKv1.7 (Q96RP8 whole entry): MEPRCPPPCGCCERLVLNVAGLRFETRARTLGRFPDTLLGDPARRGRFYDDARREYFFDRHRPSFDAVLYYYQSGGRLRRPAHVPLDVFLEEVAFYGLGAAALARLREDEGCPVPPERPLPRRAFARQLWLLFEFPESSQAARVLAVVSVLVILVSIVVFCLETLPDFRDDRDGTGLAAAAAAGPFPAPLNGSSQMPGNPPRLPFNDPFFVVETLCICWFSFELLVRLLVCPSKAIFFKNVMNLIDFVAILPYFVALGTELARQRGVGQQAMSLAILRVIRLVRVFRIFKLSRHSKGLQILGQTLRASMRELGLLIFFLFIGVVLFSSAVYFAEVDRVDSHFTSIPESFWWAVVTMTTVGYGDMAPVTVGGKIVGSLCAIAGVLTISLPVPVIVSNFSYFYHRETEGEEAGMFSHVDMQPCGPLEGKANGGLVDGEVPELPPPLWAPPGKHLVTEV
Sequence of hKv4.3 (Ito) (human) (Q9UK17 whole entry): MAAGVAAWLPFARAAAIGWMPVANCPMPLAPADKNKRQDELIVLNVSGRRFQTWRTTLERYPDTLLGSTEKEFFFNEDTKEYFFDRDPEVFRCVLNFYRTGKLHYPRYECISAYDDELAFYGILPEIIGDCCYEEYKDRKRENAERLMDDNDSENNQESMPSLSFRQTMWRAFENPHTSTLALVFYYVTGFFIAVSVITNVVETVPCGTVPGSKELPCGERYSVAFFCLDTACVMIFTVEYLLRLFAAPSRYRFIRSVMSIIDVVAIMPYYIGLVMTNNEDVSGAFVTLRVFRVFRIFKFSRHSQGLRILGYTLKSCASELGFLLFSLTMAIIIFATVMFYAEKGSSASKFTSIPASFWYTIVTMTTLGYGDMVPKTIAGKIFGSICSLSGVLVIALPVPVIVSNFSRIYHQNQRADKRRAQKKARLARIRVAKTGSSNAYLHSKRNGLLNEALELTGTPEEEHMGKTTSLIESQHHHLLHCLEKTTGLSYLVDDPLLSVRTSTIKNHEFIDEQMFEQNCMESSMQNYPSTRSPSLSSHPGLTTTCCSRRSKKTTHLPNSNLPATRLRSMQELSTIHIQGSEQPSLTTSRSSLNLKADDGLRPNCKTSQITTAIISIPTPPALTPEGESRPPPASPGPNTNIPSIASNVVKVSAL
Sequence of hKv1.6 (P17658 whole entry): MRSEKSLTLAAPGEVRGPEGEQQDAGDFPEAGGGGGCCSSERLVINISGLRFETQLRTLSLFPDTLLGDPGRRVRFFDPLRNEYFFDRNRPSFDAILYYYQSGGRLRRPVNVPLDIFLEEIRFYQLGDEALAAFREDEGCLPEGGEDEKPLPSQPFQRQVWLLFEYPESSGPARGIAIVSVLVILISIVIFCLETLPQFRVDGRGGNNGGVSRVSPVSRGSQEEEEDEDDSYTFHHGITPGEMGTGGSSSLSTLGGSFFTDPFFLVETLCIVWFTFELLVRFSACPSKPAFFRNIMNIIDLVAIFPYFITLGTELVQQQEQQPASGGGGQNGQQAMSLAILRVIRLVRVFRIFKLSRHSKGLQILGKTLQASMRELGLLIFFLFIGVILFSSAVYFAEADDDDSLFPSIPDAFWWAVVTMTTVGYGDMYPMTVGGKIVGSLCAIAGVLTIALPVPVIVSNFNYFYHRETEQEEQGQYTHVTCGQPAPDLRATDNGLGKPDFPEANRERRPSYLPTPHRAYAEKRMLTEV
Sequence of hKv1.5 (P22460 whole entry): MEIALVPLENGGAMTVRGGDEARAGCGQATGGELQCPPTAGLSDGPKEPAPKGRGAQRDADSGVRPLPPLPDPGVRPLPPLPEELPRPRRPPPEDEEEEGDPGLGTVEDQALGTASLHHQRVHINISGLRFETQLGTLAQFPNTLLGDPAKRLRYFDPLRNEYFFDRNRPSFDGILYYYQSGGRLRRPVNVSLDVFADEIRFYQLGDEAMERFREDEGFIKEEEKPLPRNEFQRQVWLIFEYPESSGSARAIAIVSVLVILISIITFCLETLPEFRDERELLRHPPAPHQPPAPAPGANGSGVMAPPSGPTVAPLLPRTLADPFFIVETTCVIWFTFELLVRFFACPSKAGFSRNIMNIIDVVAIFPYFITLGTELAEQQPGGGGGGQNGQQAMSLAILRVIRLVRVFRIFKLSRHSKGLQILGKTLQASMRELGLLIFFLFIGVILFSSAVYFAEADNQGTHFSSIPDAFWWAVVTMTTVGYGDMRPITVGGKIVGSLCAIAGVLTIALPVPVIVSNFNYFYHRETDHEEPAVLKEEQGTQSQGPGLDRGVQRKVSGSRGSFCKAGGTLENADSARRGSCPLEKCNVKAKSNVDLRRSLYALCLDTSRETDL
Sequence of hKv1.3 (P22001 whole entry): as the sequence (P22001 whole entry) above

[1-Nal23]ShK (peptide)
Kv1.1 (IWQ) IC50 (human Kv1.1 [1]): 3.3 nM | Kv1.3 (IWQ) IC50 (human Kv1.3 [2]): 3.3 nM | WB (IFNg) IC50 (human Kv1.3 [2]): 100 nM | WB (IL-2) IC50 (human Kv1.3 [2]): 100 nM

30kPEG-[Lys16]ShK (peptide)
Kv1.1 (PX) IC50 (human Kv1.1 [3]): 1070 nM | Kv1.3 (PX) IC50 (human Kv1.3 [4]): 1.2 nM | WB (IFNg) IC50 (human Kv1.3 [4]): 0.491 nM | WB (IL-2) IC50 (human Kv1.3 [4]): 0.282 nM | Kv1.1 (IWQ) IC50 (human Kv1.1 [1]): 33.3 nM | Kv1.3 (IWQ) IC50 (human Kv1.3 [2]): 0.454 nM

Bivalent Fc-L10-ShK[2-35] homodimer: bivalent IgG1 Fc-L10-ShK[2-35] peptibody, Example 2 of WO2008/088422A2 (Fc-GGGGSGGGGSSCIDTIPKSRCTAFQCKHSMKYRLSFCRKTCGTC; ends and bridges not checked; also: homodimer via IgG1 Fc)
IC50 (human Kv1.1 [5]): 0.411 nM | Potency Relative to ShK (WB, IL2) [6]: 8.73 | IC50 ([6]; read-out: WB (IL-2) IC50): 0.585 nM | IC50 ([7]; read-out: WB (IFNg) IC50): 2.29 nM | Kv1.1/Kv1.3 Selectivity Ratio (human Kv1.3 [8]): 3.54 | IC50 (human Kv1.3 [8]): 0.116 nM

HmK (peptide)
Kv1.1 (IWQ) IC50 (human Kv1.1 [1]): 0.015 nM | Kv1.3 (IWQ) IC50 (human Kv1.3 [2]): 0.9 nM | WB (IFNg) IC50 (human Kv1.3 [2]): 1.2 nM | WB (IL-2) IC50 (human Kv1.3 [2]): 0.85 nM

20 kDa-PEG-ShK: ShK conjugated with an N-terminal 20 kDa PEG moiety
AUC0-inf ([9]; SC 0.3 mg/kg): 6,020 ng · hr · mL^−1 | AUC0-t ([9]; SC 0.3 mg/kg): 6011 ng·h/mL | Cmax ([9]; SC 0.3 mg/kg): 165 ng/mL | DNAUC (0-inf) ([9]; SC 0.3 mg/kg): 20065 | MRT ([9]; SC 0.3 mg/kg): 27 h | Tmax ([9]; SC 0.3 mg/kg): 24 h | AUC0-inf ([9]; SC 2 mg/kg): 42374 ± 10,237 ng · hr · mL^−1 | AUC0-t ([9]; SC 2 mg/kg): 42347 ± 10,228 ng · hr · mL^−1 | Cmax ([9]; SC 2 mg/kg): 1138 ± 404 ng/mL | DNAUC (0-inf) ([9]; SC 2 mg/kg): 21187 | MRT ([9]; SC 2 mg/kg): 37 ± 3 h | Tmax ([9]; SC 2 mg/kg): 24 ± 0 h | IC50 ([6]; read-out: WB (IL-2) IC50): 0.38 nM | IC50 ([6]; read-out: WB (IL-2) IC50 (nM, Avg)): 0.387 nM | IC50 ([7]; read-out: WB (IFNg) IC50): 0.84 nM | IC50 ([7]; read-out: WB (IFNg) IC50 (nM, Avg)): 0.855 nM | IC50 (hKv1.3): 1.21 nM | IC50 (human Kv1.3 [8]): 0.299 nM

substance P: basic secretagogue, positive control
Degranulation / histamine release of human CD34-derived mast cells [10]: highly active

[1-Nal31]ShK (peptide)
Kv1.1 (IWQ) IC50 (human Kv1.1 [1]): 0.004 nM

30kDaPEG-ShK (peptide)
Kv1.1 (IWQ) IC50 (human Kv1.1 [1]): 0.182 nM | Kv1.3 (IWQ) IC50 (human Kv1.3 [2]): 1.93 nM | WB (IFNg) IC50 (human Kv1.3 [2]): 2.42 nM | WB (IL-2) IC50 (human Kv1.3 [2]): 0.372 nM

20 kDa PEG-ShK (peptide)
Kv1.1 IC50 (whole cell patch clamp) (human Kv1.1 [3]): 1.63 nM | Kv1.3 IC50 (whole cell patch clamp) (human Kv1.3 [4]): 0.299 nM | WB (IFNg) IC50 (human Kv1.3 [4]): 0.84 nM | WB (IL-2) IC50 (human Kv1.3 [4]): 0.38 nM | Kv1.1 (IWQ) IC50 (human Kv1.1 [1]): 0.11 nM | Kv1.3 (IWQ) IC50 (human Kv1.3 [2]): 1.21 nM | WB (IFNg) IC50 (human Kv1.3 [2]): 0.855 nM | WB (IL-2) IC50 (human Kv1.3 [2]): 0.387 nM

[1-Nal1]ShK (peptide)
Kv1.1 (IWQ) IC50 (human Kv1.1 [1]): 0.005 nM | Kv1.3 (IWQ) IC50 (human Kv1.3 [2]): 0.225 nM | WB (IFNg) IC50 (human Kv1.3 [2]): 0.247 nM | WB (IL-2) IC50 (human Kv1.3 [2]): 0.222 nM

[Nle21]ShK (peptide)
Kv1.1 (IWQ) IC50 (human Kv1.1 [1]): 0.015 nM | Kv1.3 (IWQ) IC50 (human Kv1.3 [2]): 0.04 nM | WB (IFNg) IC50 (human Kv1.3 [2]): 0.303 nM | WB (IL-2) IC50 (human Kv1.3 [2]): 0.153 nM

MCDP: basic secretagogue, positive control (IKCNCKRHVIKPHICRKICGKN; ends and bridges not checked; cysteine pairing not given here; UniProt P01499 28-49, looked up)
Degranulation / histamine release of human CD34-derived mast cells [10]: highly active

20 kDa PEG-[Lys16]ShK (peptide)
IC50 [11]: 1700 nM | IC50 [12]: 10000 nM | % Inhibition [13]: 101% | % Inhibition [14]: 71% | hERG (IKr) IC50 (hERG (IKr) (human)): > 10000 nM | Kv1.5 IC50 (hKv1.5): > 30000 nM | Nav1.5 (INa) IC50 (hNav1.5 (INa) (human)): > 30000 nM | BKCa IC50 (BKCa (human)): > 10000 nM | Kv1.2 IC50 (hKv1.2): 639 nM | Kv1.1 (IWQ) IC50 (human Kv1.1 [1]): 1080 nM | IFNγ production in human whole blood IC50 (human Kv1.3 [2]): 0.24 nM | IL-2 production in human whole blood IC50 (human Kv1.3 [2]): 0.109 nM | Kv1.3 (IWQ) IC50 (human Kv1.3 [2]): 0.665 nM | WB (IFNg) IC50 (human Kv1.3 [2]): 0.215 nM | WB (IL-2) IC50 (human Kv1.3 [2]): 0.104 nM | whole blood IL-2 secretion IC95 (human Kv1.3 [2]): 1.01 nM | Kv1.6 IC50 (hKv1.6): 466 nM | Kv1.7 IC50 (hKv1.7): > 10000 nM | cyno whole blood PD assay, IL-4 response IC50 [15]: 0.17 nM | cyno whole blood PD assay, IL-17 response IC50 [15]: 0.09 nM | Cav1.2 (ICa) IC50 (hCav1.2 (ICa) (human)): > 30000 nM | Kv4.3 (Ito) IC50 (hKv4.3 (Ito) (human)): > 30000 nM | Kv1.4 IC50 (hKv1.4): > 10000 nM

Monovalent Fc/Fc-L10-ShK[2-35] heterodimer (Fc fusion)
WB (IFNg) IC50 (human Kv1.3 [4]): 5.2 nM | WB (IL-2) IC50 (human Kv1.3 [4]): 2.15 nM

[1-Nal19]ShK (peptide)
Kv1.1 (IWQ) IC50 (human Kv1.1 [1]): 0.001 nM | Kv1.3 (IWQ) IC50 (human Kv1.3 [2]): 0.277 nM | WB (IFNg) IC50 (human Kv1.3 [2]): 0.255 nM | WB (IL-2) IC50 (human Kv1.3 [2]): 0.153 nM

Bivalent Fc-L10-ShK[1-35] homodimer: bivalent IgG1 Fc-L10-ShK[1-35] peptibody, Example 1 of WO2008/088422A2 (GGGGSGGGGSRSCIDTIPKSRCTAFQCKHSMKYRLSFCRKTCGTC; not fully specified (N-terminus); ends and bridges not checked; also: homodimer (bivalent Fc peptibody))
IC50 (human Kv1.1 [5]): 0.067 nM | IC50 ([6]; read-out: WB (IL-2) IC50): 0.386 nM | IC50 ([7]; read-out: WB (IFNg) IC50): 0.32 nM

[1-Nal16]ShK (peptide)
Kv1.3 (IWQ) IC50 (human Kv1.3 [2]): 0.699 nM | WB (IFNg) IC50 (human Kv1.3 [2]): 9.55 nM | WB (IL-2) IC50 (human Kv1.3 [2]): 28.9 nM

[Dab16]ShK (peptide)
Kv1.3 (IWQ) IC50 (human Kv1.3 [2]): 0.082 nM | WB (IL-2) IC50 (human Kv1.3 [2]): 0.086 nM

[1-Nal2]ShK (peptide)
Kv1.3 (IWQ) IC50 (human Kv1.3 [2]): 0.25 nM | WB (IFNg) IC50 (human Kv1.3 [2]): 0.258 nM | WB (IL-2) IC50 (human Kv1.3 [2]): 0.223 nM

[1-Nal15]ShK (peptide)
Kv1.1 (IWQ) IC50 (human Kv1.1 [1]): 0.009 nM | Kv1.3 (IWQ) IC50 (human Kv1.3 [2]): 0.072 nM | WB (IFNg) IC50 (human Kv1.3 [2]): 0.291 nM | WB (IL-2) IC50 (human Kv1.3 [2]): 0.184 nM

B1: Bivalent Fc-L10-ShK[2-35] homodimer (Fc fusion)
chain: GGGGSGGGGSSCIDTIPKSRCTAFQCKHSMKYRLSFCRKTCGTC
modifications: not fully specified (N-terminus); ends and bridges not checked; also: homodimer via Fc
Kv1.1 IC50 (whole cell patch clamp) (human Kv1.1 [3]): 0.411 nM | Kv1.3 IC50 (whole cell patch clamp) (human Kv1.3 [4]): 0.116 nM | WB (IFNg) IC50 (human Kv1.3 [4]): 2.29 nM | WB (IL-2) IC50 (human Kv1.3 [4]): 0.585 nM

B2: Bivalent Fc-L10-ShK[1-35] homodimer (Fc fusion)
chain: GGGGSGGGGSRSCIDTIPKSRCTAFQCKHSMKYRLSFCRKTCGTC
modifications: not fully specified (N-terminus); ends and bridges not checked; also: homodimer via Fc
Kv1.1 IC50 (whole cell patch clamp) (human Kv1.1 [3]): 0.067 nM | Kv1.3 IC50 (whole cell patch clamp) (human Kv1.3 [4]): 0.015 nM | WB (IFNg) IC50 (human Kv1.3 [4]): 0.32 nM | WB (IL-2) IC50 (human Kv1.3 [4]): 0.386 nM
